In the supplement of paper PMC10598134:
± gives the standard deviation.

Test: collision cross section of unmodified peptide (TIMS, N2, iRT-aligned); higher = larger / more extended gas-phase ion
Outline: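 On a timsTOF Pro/HT (dda-PASEF, nitrogen, ~2.4 mbar), synthetic peptide pools were analysed after a 120-min nanoflow C18 separation at 60 °C and identified in MaxQuant. Three reference ions served for 1/K0 calibration, with run-wise alignment to the median iRT peptide deviation. Collision cross section comes from the Mason-Schamp equation, using the most abundant feature per charge state averaged over 1–3 technical replicates.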

Sequence | collision cross section (charge state: 2) [Å²] | collision cross section (charge state: 3) [Å²]
GKLGVPGLPGYPGR | 385.87 ± 0.86 | 480.85 ± 1.2
GLATFPSRGAK | 368.08 ± 0.52 | 445.97 ± 5.5
GLPGEKGER | 342.99 ± 1.2 | 394.07 ± 1.2
GLPGEPGPR | 309.4 ± 0.22 | –
GLPGEPGPRGLLGPK | 406.63 ± 0.39 | 459.1 ± 1.2
GLPGLAGDHGEFGEK | 432.07 ± 1 | 504.1 ± 0.34
GLPGPPGPQGESR | 356.03 ± 0.79 | –
GLQGPPGK | 292.79 ± 0.8 | –
GNDISSGTVLSDYVGSGPPK | 464.77 ± 1 | –
GNDISSGTVLSDYVGSGPPKK | – | 543.89 ± 0.71
GNPGVGTQGPR | 333.35 ± 8.7 | –
GPKGQQGEPGPK | 356.26 ± 0.79 | 451.77 ± 0.63
GPPGAKGNK | 312.31 ± 1.7 | –
GPPGPAGPSGESR | 343.88 ± 1 | –
GPPGPPGK | 285.24 ± 0.86 | –
GPPGPPGR | 295.47 ± 0.78 | –
GPPGPPGRPGNSGIR | – | 436.52 ± 1.7
GPPPSYGGSSR | 337.81 ± 0.59 | –
GPPRGGPGGELPR | 366.24 ± 0.38 | 471.24 ± 3.4
GPQNATDSYVHK | 381.43 ± 1.1 | 445.36 ± 1.8
GQDSTIAASEQQVAAR | 416.79 ± 0.66 | 495.1 ± 0.23
GQKGEPGLPGHPGK | 378.64 ± 1.5 | 470.96 ± 1.2

Sequence | collision cross section (charge state: 2) [Å²] | collision cross section (charge state: 3) [Å²]
GQQGEPGPK | 313.75 ± 0.93 | –
GRGAAAAGGPQR | 344.37 ± 5.2 | 433.7 ± 4.8
GRGAANDSTQFTVAGR | 411.19 | 473.86 ± 2.3
GRGAPPPPPSR | 341.09 ± 1.1 | 436.88 ± 3.2
GRGGAESHTFK | 353.4 ± 0.58 | 440.9 ± 5.6
GRGGPGPAQR | 323.16 ± 0.71 | 428.92 ± 5.9
GRGLPGPAESLR | 364.16 ± 0.25 | 446.18 ± 17
GRGTGEAEEEYVGPR | 410.08 ± 0.96 | 491.56 ± 0.9
GRGTSQLAEGATAK | 389.78 ± 0.35 | 463.88 ± 3.2
GRGVGSPEPGPTAPYLGR | 432.42 | 517.8 ± 0.62
GRGVGSPEPGPTAPYLGRR | – | 516.55
GRGYFEHR | 340.02 ± 0.52 | 409.47 ± 5.3
GSAPPGPVPEGSIR | 377.29 ± 0.67 | –
GSELQNYFTK | 364.76 ± 0.54 | –
GSGLGARGSSYGVTSTESYK | 471.67 | 515.78 ± 1.1
GSHGQTPSPGALPLGR | – | 463.73 ± 0.22
GSIGFPGFPGANGEKGGR | – | 519.37 ± 1.2
GSLEKGSPEDK | 350.53 ± 1.5 | 434.36 ± 3.6
GSLGAQKLANTCFNEIEK | 483.18 ± 2.7 | 511.29 ± 4.4
GSRGFPGEK | 330.16 ± 0.23 | –
GSYLGGYSAGRGIYSR | 455.17 | 483.36 ± 2.1
GTGRGGGGGGGGGAPR | 356.62 | 435.15 ± 5.4

Sequence | collision cross section (charge state: 2) [Å²] | collision cross section (charge state: 3) [Å²]
GTISAPGKVVTAAAQAK | 464.56 ± 3.2 | 518.69 ± 4.3
GTITVSAQELKDNR | 437.3 ± 1.6 | 507.47 ± 4.6
GTPGKPGPR | 311.01 ± 0.77 | –
GTVPDDAVEALADSLGKK | 478 ± 3.1 | 520.87 ± 1.8
GVEAVGSYAENQR | 378.71 ± 0.16 | 463.38 ± 1.1
GVPRGVHLGSQGLQR | 424.25 | 484.7 ± 1.8
GVQYLNEIK | 351.72 ± 0.74 | –
GYDVIAQAQSGTGK | 388.46 ± 0.16 | –
GYGVIFANGNR | 361.55 ± 0.6 | –
GYLGPEQLPDCLK | 401.23 ± 0.16 | –
HELQANCYEEVKDR | 443.76 ± 2.4 | 527.87 ± 1.3
HFGPVPPSQGRGR | – | 493.79 ± 0.89
HGGSGGRGVSVSSAR | – | 479.93 ± 1.3
HGVYNPNK | 330.7 ± 0.79 | –
HHAAYVNNLNVTEEK | 444.13 ± 2.1 | 494.31 ± 0.87
HHTLRQAPQPQSSLQR | – | 502.65 ± 0.69
HIGFVYHPTK | 378.19 ± 1.1 | 450.25 ± 1.7
HLRGHGPQPPLR | 396.64 | 492.83 ± 0.94
HSPTLPEPGGLRLELPLSR | – | 583.19
HTLLRAPAPELLPANVAGR | – | 530.02 ± 1.9
HVSPVTPPR | 327.76 ± 0.64 | –
IDLPAENSNSETIIITGKR | 488.02 | 565.88 ± 0.52

Sequence | collision cross section (charge state: 2) [Å²] | collision cross section (charge state: 3) [Å²]
IEDEQALGSQLQK | 401.79 ± 0.14 | 493.77 ± 0.29
IFDSEEILAGYK | 391.02 ± 0.47 | –
IGAEVYHHLK | 371.39 ± 0.54 | 435.97 ± 1.1
IGNSYFKEEK | 377.24 ± 0.91 | 453.77 ± 3.2
IGSLDNITHVPGGGNK | – | 470.46 ± 1.9
IHNAENIQPGEQKYEYK | 475.76 ± 2.4 | 534.89 ± 9.6
IHPEGPPLK | 335.79 ± 0.58 | 438.33 ± 2
IHVQSSSDSSDEPAEKR | 455.51 ± 2.8 | 536.3 ± 1.4
IINEPTAAAIAYGLDKK | 487.73 ± 3.8 | 556.28 ± 2.3
IISSIEQKEENK | 409.72 ± 2.2 | 479.1 ± 6.7
ILDLKTGTVK | 361.56 ± 1.2 | 442.8 ± 7.1
INNFSADIKDSK | 403.18 ± 2.5 | 450.51 ± 4
IPAASAAAMNLASAR | 397.84 ± 0.66 | 496.43 ± 0.86
IPPTYQIR | 332.62 ± 0.59 | –
IPQEKCILQTDVK | 428.77 ± 2.5 | 470.55 ± 3.7
IQNGAQGIRFIYTR | – | 511.04 ± 0.58
IQQELQTAKK | 374.48 ± 0.53 | 429.26 ± 3.7
IQTKAGEATVK | 361.35 ± 0.94 | 457.37 ± 4.1
IQTVPASHLQQGTASGSSK | – | 490.25 ± 12
ISALQGKLSK | 353.47 ± 1.4 | 435.93 ± 5.2
ISEILLDHGAPIQAK | 447.46 ± 0.13 | 537.87 ± 1.7
ISPVEESEDVSNK | 399.42 ± 0.14 | –

Sequence | collision cross section (charge state: 2) [Å²] | collision cross section (charge state: 3) [Å²]
ISSNFSSIIAEKLR | 430.92 ± 3.1 | 511.25 ± 4.9
ITASLCDLKSR | 397.44 ± 4.9 | 460.65 ± 3.9
ITESVAETAQTIK | 394.65 ± 0.14 | –
ITESVAETAQTIKK | 434.75 ± 1.5 | 508.11 ± 2.5
ITGKNQVTATK | 365.6 ± 0.91 | 448.51 ± 5
ITLSKHQNVQLPR | 434.86 ± 3.1 | 515.94 ± 19
IVEKYGYTHLSAGELLR | 489.48 ± 3 | 538.24 ± 2.8
IVFSGNLFQHQEDSKK | 493.09 ± 3.3 | 531.43 ± 2
IVNVSLADLR | 359.17 ± 0.57 | –
IVSGKDYNVTANSK | 405.96 ± 2.6 | 485.92 ± 5.8
IYELAAGGTAVGTGLNTR | 443.72 ± 1 | –
IYHPNVDK | 337.77 ± 0.73 | 425.77 ± 2
KDYQPGITFIVVQK | – | 508.05 ± 1.2
KFGVLSDNFK | 368.49 ± 1.5 | 446.92 ± 3.4
KITESVAETAQTIK | 420.69 ± 0.66 | 480.58 ± 0.22
KSQAGASELGPFSDPR | – | 497 ± 1.7
KVQFAPEK | 329.36 ± 0.58 | –
KVTLSVLSR | 348.44 ± 0.58 | 443.31 ± 0.22
KYEEIDNAPEER | 401.01 ± 1.2 | 466.95 ± 4.5
